Experimental data published in paper PMC8546545.

How the values were obtained:
[1] = molecular target: OdhI (Oxoglutarate dehydrogenase Inhibitor), FHA substrate of PknG (Corynebacterium glutamicum) (UniProt Q8NQJ3)
[2] = molecular target: OdhI (Oxoglutarate dehydrogenase Inhibitor), FHA substrate of PknG (Corynebacterium glutamicum) (UniProt Q8NQJ3); remark: listed apart in the source

Chain of UniProt Q8NQJ3 (Q8NQJ3 whole entry): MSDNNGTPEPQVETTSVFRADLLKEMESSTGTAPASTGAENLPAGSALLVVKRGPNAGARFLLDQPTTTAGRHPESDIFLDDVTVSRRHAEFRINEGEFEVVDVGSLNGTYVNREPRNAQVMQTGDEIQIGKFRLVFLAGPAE

Row | Substance | kinase activity ([γ-32P]ATP) against OdhI compared to the full-length enzyme (phosphorylation of the 17-mer peptide unaffected) [1] [fold lower] | kinase activity ([γ-32P]ATP) of CgPknG toward OdhI (25 μM) compared with the 17-mer peptide substrate lacking an FHA domain (330 μM) [2] [fold]
1 | CgPknG deletion mutant lacking residues 1 to 129 and 434 to 822 (domain or fragment) | 7 | –
2 | Ser/Thr protein kinase PknG from Corynebacterium glutamicum, full length (enzyme) | – | 45
